Tests used:
[1] = target: Hsp70SBD (HSPA1A), truncated form, residues 394-509 (human) (UniProt P0DMV8); test: fluorescence polarisation; competition: 2 µM Hsp70SBD and 25 nM FAM-LVEALY with varying concentrations of AR protein, 30 min at room temperature; 100 mM Tris, 20 mM KCl, 6 mM MgCl2 pH 7.4; no nucleotides
[2] = target: Hsp70 (SBD), residues 394-540 (human) (UniProt P0DMV8); test: ITC; AR protein (100-200 µM) in the syringe titrated into 10-20 µM chaperone in the cell; 25 °C; 25 mM HEPES, 5 mM MgCl2, 10 mM KCl pH 7.5; one or two-site binding model; no nucleotides
[3] = target: human Hsp40 (DNAJA2), full length (human) (UniProt O60884); test: as above
[4] = target: androgen receptor N-terminal domain construct NTD_(1-155) (human) (UniProt P10275); test: NMR titration; 1H,15N-HSQC of 33 µM 15N-labelled NTD construct with 16.5 or 33 µM (0.5 or 1 molar equivalents) unlabelled Hsp70 or Hsp40; 5 °C; 20 mM phosphate pH 7.4, 1 mM TCEP, 10% D2O; no added nucleotides

IC50 [1] [µM] | Kd [2] [µM] | Kd [3] [µM] | stoichiometry N [3] | I/I0 of NTD (1-155) signals at 1 molar equivalent [4] | Substance
1.7 | 5 | 3.3 | 0.49 | – | androgen receptor N-terminal domain construct NTD_(1-155) (from UniProt P10275 1-155) (domain or fragment)
– | – | – | – | 0.3 | human Hsp40 (DNAJA2), full length (from UniProt O60884 1-412) (natural protein)
– | – | – | – | 0.3 | human Hsp70 (HSPA1A), full length (from UniProt P0DMV8 1-641) (natural protein)

— PMC6687723
